{"source": "patent US20180326022", "proteins": {"B1": {"name": "human tubulin tyrosine ligase (TTL) (protein)", "chain": "MYTFVVRDENSSVYAEVSRLLLATGHWKRLRRDNPRFNLMLGERNRLPFGRLGHEPGLVQLVNYYRGADKLCRKASLVKLIKTSPELAESCTWFPESYVIYPTNLKTPVAPAQNGIQPPISNSRTDEREFFLASYNRKKEDGEGNVWIAKSSAGAKGEGILISSEASELLDFIDNQGQVHVIQKYLEHPLLLEPGHRKFDIRSWVLVDHQYNIYLYREGVLRTASEPYHVDNFQDKTCHLTNHCIQKEYSKNYGKYEEGNEMFFKEFNQYLTSALNITLESSILLQIKHIIRNCLLSVEPAISTKHLPYQSFQLFGFDFMVDEELKVWLIEVNGAPACAQKLYAELCQGIVDIAISSVFPPPDVEQPQTQPAAFIKL"}}, "key": {"[1]": {"biological_target": "detyrosinated microtubules (human cardiomyocytes)"}, "[2]": {"biological_target": "detyrosinated microtubules (rat cardiomyocytes)"}}}
{"protein": "B1", "values": [{"measurement": "density of dTyr-MTs and dTyr-MT/total MT ratio (immunofluorescence) after AdV-TTL for 48 hrs", "setting": "[1]", "result": "decreased the density of dTyr-MTs and the proportion of total MTs that were detyrosinated"}, {"measurement": "amount of polymerized, detyrosinated MTs (immunofluorescence and immunoblot) after AdV-TTL", "setting": "[2]", "result": "3-4 fold reduction in the amount of polymerized, detyrosinated MTs"}, {"measurement": "detyr Tubulin, western blotting relative to null, TTL (0.01) (relative to null)", "setting": "[2]", "result": 0.74}, {"measurement": "detyr Tubulin, western blotting relative to null, TTL (0.1) (relative to null)", "setting": "[2]", "result": 0.28}, {"measurement": "tyr Tubulin, western blotting relative to null, TTL (0.01) (relative to null)", "setting": "[2]", "result": 2.63}, {"measurement": "tyr Tubulin, western blotting relative to null, TTL (0.1) (relative to null)", "setting": "[2]", "result": 3.32}]}
